Assay results reported in patent publication EP0251446B1, “Non-human Carbonyl hydrolase mutants, DNA sequences and vectors encoding same and hosts transformed with said vectors” (GENENCOR INTERNATIONAL, INC., priority 1986, dated 1988).
Changes are numbered by the printed parent chain. Numbers in names are those of the source.

B1: B. amyloliquefaciens subtilisin variant K166 (Gly166 to Lys) (Bacillus amyloliquefaciens; G273K) (protein)
chain: AQSVPYGVSQIKAPALHSQGYTGSNVKVAVIDSGIDSSHPDLKVAGGASMVPSETNPFQDNNSHGTHVAGTVAALNNSIGVLGVAPSASLYAVKVLGADGSGQYSWIINGIEWAIANNMDVINMSLGGPSGSAALKAAVDKAVASGVVVVAAAGNEGTSGSSSTVKYPGKYPSVIAVGAVDSSNQRASFSSVGPELDVMAPGVSIQSTLPGNKYGAYNGTSMASPHVAGAAALILSKHPNWTNTQVRSSLENTTTKLGDSFYYGKGLINVQAAAQ
notes: at various amino acid residues within the mature form of the subtilisin molecule; made in house; host or cells: Bacillus subtilis BG2036
B2: B. amyloliquefaciens subtilisin variant R166 (Gly166 to Arg) (Bacillus amyloliquefaciens; G273R) (protein)
chain: B1 chain with K166R
notes: as for B1

What was measured:
Type in all cases: biochemical, B. amyloliquefaciens
[1] = substrate: C[C@H](NC(=O)CCC(=O)O)C(=O)N[C@@H](C)C(=O)N1CCC[C@H]1C(=O)N[C@@H](Cc1ccccc1)C(=O)Nc1ccc([N+](=O)[O-])cc1; experiment: Kinetics of p-nitroanilide substrate hydrolysis, K166; details: K166
Text: (§1) Wild-type subtilisin was purified from B. subtilis culture supernatants expressing the B. amyloliquefaciens subtilisin gene (Wells, J.A., et al. (1983) Nucleic Acids Res. 11, 7911-7925) as previously described (Estell, D.A., et al. (1985) J. Biol. Chem. 260, 6518-6521). Details of the synthesis of tetrapeptide substrates having the form succinyl-L-AlaL-AlaL-ProL-[X]-p-nitroanilide (where X is the P1 amino acid) are described by DelMar, E.G., et al. (1979) Anal. Biochem. 99, 316-320. Kinetic parameters, Km(M) and kcat-(s-^1) were measured using a modified progress curve analysis (Estell, D.A., et al. (1985) J. Biol. Chem. 260, 6518-6521). Briefly, plots of rate versus product concentration were fit to the differential form of the rate equation using a non-linear regression algorithm. Errors in kcat and Km for all values reported are less than five percent. The various substrates in Table VIII are ranged in order of decreasing hydrophobicity. Nozaki, Y. (1971), J. Biol. Chem. 246, 2211-2217; Tanford C. (1978) Science 200, 1012).
(§2) The construction of subtilisin mutants containing the substitution of the ionic amino acids Asp, Asn, Gln, Lys and Ang are disclosed in EPO Publication No. 0130756. The present example describes the construction of the mutant subtilisin containing Glu at position 166 (E166) and presents substrate specificity data on these mutants. Further data on position 166 and 156 single and double mutants is presented infra.
(§3) Each of these mutants was analyzed with the tetrapeptide substrates, succinyl-L-AlaL-AlaProL-X-p-nitroanilide, where X was Phe, Ala and Glu.
(§4) K166 is a common replacement amino acid in the 156/166 mutants described herein. The replacement of Lys for GIy166 was achieved by using the synthetic DNA cassette at the top right of Figure 21 which contained the triplet AAA for NNN. This produced fragment 2 with Lys substituting for GIy166.
(§5) These mutants, the single mutant K166, and the S156 and Q156 mutants of Example 8 were analyzed for substitute specificity against synthetic polypeptides containing Phe or Glu as the P-1 substrate residue.

[2] = substrate: C[C@H](NC(=O)CCC(=O)O)C(=O)N[C@@H](C)C(=O)N1CCC[C@H]1C(=O)N[C@@H](CCC(=O)O)C(=O)Nc1ccc([N+](=O)[O-])cc1; experiment: as above
Text: as §1, §2, §3, §4, §5

[3] = substrate: C[C@H](NC(=O)CCC(=O)O)C(=O)N[C@@H](C)C(=O)N1CCC[C@H]1C(=O)N[C@@H](CCCCN)C(=O)Nc1ccc([N+](=O)[O-])cc1; experiment: as above; details: other: Table XIV, 156 Glu / 166 Lys; value in parentheses; synthetic substrate with label as P-1 amino acid
[4] = substrate: C[C@H](NC(=O)CCC(=O)O)C(=O)N[C@@H](C)C(=O)N1CCC[C@H]1C(=O)N[C@@H](CCC(N)=O)C(=O)Nc1ccc([N+](=O)[O-])cc1; experiment: as above; details: other: Table XIV, 156 Glu / 166 Lys; value in parentheses; synthetic substrate with label as P-1 amino acid
[5] = substrate: CSCC[C@H](NC(=O)[C@@H]1CCCN1C(=O)[C@H](C)NC(=O)[C@H](C)NC(=O)CCC(=O)O)C(=O)Nc1ccc([N+](=O)[O-])cc1; experiment: as above; details: other: Table XIV, 156 Glu / 166 Lys; value in parentheses; synthetic substrate with label as P-1 amino acid
[6] = substrate: C[C@H](NC(=O)CCC(=O)O)C(=O)N[C@@H](C)C(=O)N1CCC[C@H]1C(=O)N[C@@H](CCCCN)C(=O)Nc1ccc([N+](=O)[O-])cc1; experiment: Kinetics of p-nitroanilide substrate hydrolysis, R166; details: other: Table XIV, 156 Glu / 166 Arg; value in parentheses; synthetic substrate with label as P-1 amino acid
Text: as §1, §2, §3

[7] = substrate: C[C@H](NC(=O)CCC(=O)O)C(=O)N[C@@H](C)C(=O)N1CCC[C@H]1C(=O)N[C@@H](CCC(N)=O)C(=O)Nc1ccc([N+](=O)[O-])cc1; experiment: as above; details: other: Table XIV, 156 Glu / 166 Arg; value in parentheses; synthetic substrate with label as P-1 amino acid
Text: as §1, §2, §3

[8] = substrate: CSCC[C@H](NC(=O)[C@@H]1CCCN1C(=O)[C@H](C)NC(=O)[C@H](C)NC(=O)CCC(=O)O)C(=O)Nc1ccc([N+](=O)[O-])cc1; experiment: as above; details: other: Table XIV, 156 Glu / 166 Arg; value in parentheses; synthetic substrate with label as P-1 amino acid
Text: as §1, §2, §3

[9] = substrate: C[C@H](NC(=O)CCC(=O)O)C(=O)N[C@@H](C)C(=O)N1CCC[C@H]1C(=O)N[C@@H](CCC(=O)O)C(=O)Nc1ccc([N+](=O)[O-])cc1; experiment: as above; details: other: Table XIV, 156 Glu / 166 Arg; value in parentheses; synthetic substrate with label as P-1 amino acid
Text: as §1, §2, §3

[10] = other: Table XIII, synthetic substrate with label as P-1 residue
[11] = other: Table XIII, K166, synthetic substrate with label as P-1 residue

Protein | Km [1, 10] | kcat [1, 10] | kcat/Km [1, 10] | Km ([1]; other: Table XIX) | kcat ([1]; other: Table XIX) | Km [2, 11] | kcat [2, 11] | kcat/Km [2, 11] | Km ([2]; other: Table XIV, 156 Glu / 166 Lys, value in parentheses, synthetic substrate with label as P-1 amino acid) | Km [3] | Km [4] | Km [5] | Km [6] | Km [7] | Km [8] | Km [9]
B1 | 40 µM | 20.00 s-^1 | 520000 M⁻¹ s⁻¹ | 37 µM | 21 s-^1 | 56 µM | 0.70 s-^1 | 12000 M⁻¹ s⁻¹ | 56.2 µM | 1170 µM | 132 µM | 35.5 µM |  |  |  | 
B2 |  |  |  |  |  |  |  |  |  |  |  |  | 1580 µM | 316 µM | 60.3 µM | 501 µM
